# Reference: patent US20240301053A1, “COMBINATION THERAPIES WITH VENETOCLAX AND TIM-3 INHIBITORS” (Novartis AG, priority 2019, published 2024)
# Biological target: T1, TIM-3/Galectin-9 interaction (Homo sapiens, UniProt Q8TDQ0)
# T1 construct: TIM-3 fusion protein (R&D Systems) was coated on a standard MesoScale 96 well plate; purchased R&D Systems
# Assay: plate-based (MesoScale) TIM-3/Galectin-9 competition assay
# Format: binding
# Details: TIM-3 fusion protein coated at 2 μg/ml; labeled Galectin-9 100 nM; serial dilutions
# Protocol: TIM-3 fusion protein (R&D Systems) was coated on a standard MesoScale 96 well plate (Meso Scale Discovery) at 2 μg/ml in PBS (Phosphate Buffered Saline) and incubated for six hours at room temperature. The plate was washed three times with PBST (PBS buffer containing 0.05% Tween-20) and blocked with PBS containing 5% Probumin (Millipore) overnight at 4° C. After incubation, the plate was washed three times with PBST and unlabeled antibody (F38-2E2 (BioLegend); MBG453; MBG453 F(ab′)2; MBG453 F(ab); or control recombinant human Galectin-9 protein) diluted in Assay Diluent (2% Probumin, 0.1% Tween-20, 0.1% Triton X-100 (Sigma) with 10% StabilGuard (SurModics)), was added in serial dilutions to the plate and incubated for one hour on an orbital shaker at room temperature. The plate was then washed three times with PBST, and Galectin-9 labeled with MSD SULFOTag (Meso Scale Discovery) as per manufacturer's instructions, diluted in Assay Diluent to 100 nM, was added to the plate for one hour at room temperature on an orbital shaker. The plate was again washed three times with PBST, and Read Buffer T (1×) was added to the plate. The plate was read on MA600 Imager, and competition was assessed as a measure of the ability of the antibody to block Ga19-SULFOTag signal to TIM-3 receptor.
molecule,measurement,value
"control Galectin-9 protein: control recombinant human Galectin-9 protein, unlabeled (protein) AFSGSQAPYLSPAVPFSGTIQGGLQDGLQITVNGTVLSSSGTRFAVNFQTGFSGNDIAFHFNPRFEDGGYVVCNTRQNGSWGPEERKTHMPFQKGMPFDLCFLVQSSDFKVMVNGILFVQYFHRVPFHRVDTISVNGSVQLSYISFQPPGVWPANPAPITQTVIHTVQSAPGQMFSTPAIPPMMYPHPAYPMPFITTILGGLYPSKSILLSGTVLPSAQRFHINLCSGNHIAFHLNPRFDENAVVRNTQIDNSWGSEERSLPRKMPFVRGQSFSVWILCEAHCLKVAVDGQHLFEYYHRLRNLPTINRLEVGGDIQLTHVQT",ability to block Gal9-SULFOTag signal to TIM-3 receptor (interaction between TIM-3 and Galectin-9),did not
